# Assay results reported in patent publication US20230313187A1, “MODIFICATIONS OF MAMMALIAN CELLS USING ARTIFICIAL MICRO-RNA TO ALTER THEIR PROPERTIES AND THE COMPOSITIONS OF THEIR PRODUCTS” (DNA TWOPOINTO INC., priority 2020, published 2023).
# Where “and” joins values, the source holds several entries; their conditions need not be identical. Equal entries are not always repeated.
# B1: SEQ ID NO: 204: four-hairpin amiRNA, two guides to Homo sapiens GMD mRNA (47, 49) and two to GFT mRNA (52, 50) (nucleic acid)
# chain: ATCTGATCTTCTGAAGAAAATATATTTCTTTTTATTCATAGCTCTTAACTAGTGGTGATAGCAATGTCAGCAGTGCCTTAAAACATCTTGATTTCACAAAGTGAAGCCACAGATGTTTGTGAAATAAAGATGTTTTCAAGTAAGGTTGACCATACTCTACTCTAGTTATATTCTTTAGGCACGAATGTGTGTTTAAAAAAAATAAAAACTAGTGGTGATAGCAATGTCAGCAGTGCCTTATTACTTGTAAACACTGGTTCGTGAAGCCACAGATGGAACCAGTGTCTACAAGTAATCAAGTAAGGTTGACCATACTCTACTCTAGAGTTGTGTTTTAATGTATATTAATGTTACTAATGTGTTTACTAGTGGTGATAGCAATGTCAGCAGTGCCTTTCACTACTGTGCTGGCCCCGCGTGAAGCCACAGATGGCGGGGCCAGAACAGTAGTGACAAGTAAGGTTGACCATACTCTACTCTAGGTTATTTTTAGTATGATTCTGTAAAAATGAATTAATACTAACTAGTGGTGATAGCAATGTCAGCAGTGCCTTTGTTGTGTAACAACATAATTTGTGAAGCCACAGATGAAATTATGTTATTACACAACACAAGTAAGGTTGACCATACTCTACTCTAGTCAGTTTTATTGATAGTCTTTTCAGTATTATTGATAATCTT
# System: Homo sapiens GDP-Mannose 4,6-dehydratase (GMD) and GDP-fucose transporter 1 (GFT) mRNA
# Test: Inhibition of antibody fucosylation in HEK cell pools, amiRNA directed toward GMD and GFT
# Type: cell-based
# Settings: HEK pool
# From the text: A second multi-hairpin amiRNA gene was designed to target both Homo sapiens GDP-Mannose 4,6-dehydratase (GMD) with mRNA sequence given by SEQ ID NO: 8, and GDP-fucose transporter 1 (GFT) with mRNA sequence given by SEQ ID NO: 9. The multi-hairpin amiRNA, with nucleotide sequence SEQ ID NO: 204, comprised four hairpins; the first hairpin comprised guide strand sequence SEQ ID NO: 47 (complementary to the mRNA for human GMD, with sequence SEQ ID NO: 8), immediately followed by loop sequence SEQ ID NO: 241 and passenger strand sequence SEQ ID NO: 132; the second hairpin comprised guide strand sequence SEQ ID NO: 52 (complementary to the mRNA for human GFT, with sequence given by SEQ ID NO: 9), immediately followed by loop sequence SEQ ID NO: 241 and passenger strand sequence SEQ ID NO: 137; the third hairpin comprised guide strand sequence SEQ ID NO: 50 (complementary to the mRNA for human GFT, with sequence SEQ ID NO: 9), immediately followed by loop sequence SEQ ID NO: 241 and passenger strand sequence SEQ ID NO: 135 and the fourth hairpin comprised guide strand sequence SEQ ID NO: 49 (complementary to the mRNA for human GMD, with sequence given by SEQ ID NO: 8), immediately followed by loop sequence SEQ ID NO: 241 and passenger strand sequence SEQ ID NO: 134. Each passenger strand sequence was complementary to its corresponding guide strand sequence, except that the bases in the passenger strand sequences corresponding to the 5′ base of the guide strand and the twelfth base of the guide strand were changed to be non-complementary. The first and twelfth bases of guide strand with SEQ ID NO: 47 are T and G respectively, the corresponding bases in the corresponding passenger strand sequence SEQ ID NO: 132 are C and A respectively. […]
# The multi-hairpin amiRNA sequences were placed to the 3′ of an open reading frame encoding a red fluorescent protein (with nucleotide sequence SEQ ID NO: 279) and followed by a rabbit globin polyadenylation sequence. […]
molecule,measurement,setting,value
B1,G0 + G1 % (area),"afucosylated antibody, 7-day transient culture",100 % (area)
same,Titer,"antibody in culture supernatant, 7-day culture, listed as 204",126 mg/L and 120 mg/L
same,G0F + G1F (% area),"fucosylated antibody, 7-day transient culture, BDL=below detection limit, listed as 204",complete abolition of antibody fucosylation and BDL
